Numbering of substitutions follows the chain as printed. In names and notes the source's numbering stands.
T1: recombinant human IL-12Rβ2/Fc fusion protein (R&D Systems) (human, UniProt Q99665 24-622, limits assumed)
T1 construct: bought; also called Il12Rb2
T1 sequence (looked up): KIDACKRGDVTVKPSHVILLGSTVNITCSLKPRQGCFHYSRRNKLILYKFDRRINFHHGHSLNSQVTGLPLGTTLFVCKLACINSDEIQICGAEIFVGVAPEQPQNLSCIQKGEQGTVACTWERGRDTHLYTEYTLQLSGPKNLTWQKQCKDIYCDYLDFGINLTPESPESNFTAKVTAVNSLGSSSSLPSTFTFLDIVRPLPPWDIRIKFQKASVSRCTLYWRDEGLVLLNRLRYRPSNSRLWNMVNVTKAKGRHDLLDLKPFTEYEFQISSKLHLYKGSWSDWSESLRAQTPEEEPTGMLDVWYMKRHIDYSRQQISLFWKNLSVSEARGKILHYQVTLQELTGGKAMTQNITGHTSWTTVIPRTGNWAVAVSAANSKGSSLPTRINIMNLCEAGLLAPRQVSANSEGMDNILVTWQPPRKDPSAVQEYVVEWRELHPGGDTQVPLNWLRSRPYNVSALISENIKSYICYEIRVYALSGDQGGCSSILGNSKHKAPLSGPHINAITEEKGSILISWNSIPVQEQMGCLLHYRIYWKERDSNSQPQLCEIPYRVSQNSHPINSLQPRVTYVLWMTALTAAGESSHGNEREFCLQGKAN

T2: recombinant human IL-23R/Fc chimera (R&D Systems) (human, UniProt Q5VWK5 24-353)
T2 construct: bought; also called human IL-23R/Fc fusion protein; rhIL23RFc
T2 sequence (looked up): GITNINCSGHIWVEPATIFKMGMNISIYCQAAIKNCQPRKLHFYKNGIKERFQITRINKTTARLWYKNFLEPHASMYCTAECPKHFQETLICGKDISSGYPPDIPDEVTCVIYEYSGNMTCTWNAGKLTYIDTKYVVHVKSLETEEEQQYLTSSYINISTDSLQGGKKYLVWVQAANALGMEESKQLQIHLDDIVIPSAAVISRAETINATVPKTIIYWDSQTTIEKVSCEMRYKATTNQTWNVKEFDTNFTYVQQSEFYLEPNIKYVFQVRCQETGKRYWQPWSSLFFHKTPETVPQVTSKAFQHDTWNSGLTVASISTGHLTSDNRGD

B1: 101-113-6C108 ATRIMER (designed binder)
chain: EPPTQKPKKIVNAKKDVVNTKMFEELKSRLDTLAQEVALLKEQQALQTVCLKGTKVHMKCFLAFTQTKTFHEASEDCISRGGTLSTPQTGSENDALYEYLRQSVGNEAEIWLGLNGSALTNTWVDMTGARIAYKNWEPPPPHHPMGGFGVFGENCAVLSGAANGKWFDKRCRDQLPYICQFGIV
B2: 101-51-1A4 ATRIMER (designed binder)
chain: B1 chain with P138R, P140A, P141L, H142V, H143Q, M145R
notes: also called ATRIMER complex 1A4
B3: 101-51-1A7 ATRIMER (designed binder)
chain: B1 chain with P138R, P141L, H142Y, H143Q, M145G, F148W
B4: 014-42.3D11 ATRIMER (designed binder)
chain: EPPTQKPKKIVNAKKDVVNTKMFEELKSRLDTLAQEVALLKEQQALQTVCLKGTKVHMKCFLAFTQTKTFHEASEDCISRGGTLSTPQTGSENDALYEYLRQSVGNEAEIWLGLNGWLEGAGWVDMTGARIAYKNWETEITAQPDGGWHWRWENCAVLSGAANGKWFDKRCRDQLPYICQFGIV
modifications: Homotrimer (ATRIMER) of this chain; one protomer is given.
notes: not shown: C-terminal tag (His/Myc of pANA4, HA-StrepII of pANA10, or that of pANA19)
B5: 8b6b (=A1H) DR 5 ATRIMER (designed binder)
chain: EPPTQKPKKIVNAKKDVVNTKMFEELKSRLDTLAQEVALLKEQQALQTVCLKGTKVHMKCFLAFTQTKTFHEASEDCISRGGTLSTPQTGSENDALYEYLRQSVGNEAEIWLGLNRAVLRPRWVDMTGARIAYKNWETEITAQPDGGWVLGGKNCAVLSGAANGKWFDKRCRDQLPYICQFGIV
modifications: Homotrimer (ATRIMER) of this chain; one protomer is given.
notes: also called 029-15.A1H; not shown: C-terminal tag (His/Myc of pANA4, HA-StrepII of pANA10, or that of pANA19)
B6: 9b3d (=B3D) DR 5 ATRIMER (designed binder)
chain: EPPTQKPKKIVNAKKDVVNTKMFEELKSRLDTLAQEVALLKEQQALQTVCLKGTKVHMKCFLAFTQTKTFHEASEDCISRGGTLSTPQTGSENDALYEYLRQSVGNEAEIWLGLNELRTDGLWVDMTGARIAYKNWETEITAQPDGGVMRRSENCAVLSGAANGKWFDKRCRDQLPYICQFGIV
modifications: Homotrimer (ATRIMER) of this chain; one protomer is given.
notes: also called 029-15.B3D; not shown: C-terminal tag (His/Myc of pANA4, HA-StrepII of pANA10, or that of pANA19)
B7: 2a1a (=B9F) DR 5 ATRIMER (designed binder)
chain: B6 chain with E116K, L117R, R118V, T119W, D120Y, G121R, L122G, V148M, M149R, S152R
modifications: Homotrimer (ATRIMER) of this chain; one protomer is given.
notes: also called 029-15.B9F; not shown: C-terminal tag (His/Myc of pANA4, HA-StrepII of pANA10, or that of pANA19)
B8: 1a7b (=A8G) DR 5 ATRIMER (designed binder)
chain: B5 chain with V118W, W148T, V149L, L150V, G151S, K153E
modifications: Homotrimer (ATRIMER) of this chain; one protomer is given.
notes: also called 029-15.A8G; not shown: C-terminal tag (His/Myc of pANA4, HA-StrepII of pANA10, or that of pANA19)
B9: A9E ATRIMER (designed binder)
chain: B1 chain with P138T, P139E, P140I, P141T, H142A, H143Q, M145D, F148L, V150Y, F151W
B10: 4G8 ATRIMER (designed binder)
chain: B6 chain with E116G, L117S, T119R, D120S, L122V, V148F, M149G, R150V, R151F, S152G
modifications: Forms a homotrimer through the tetranectin coiled coil; one protomer is given.
notes: made in E. coli; also called 001-69.4G8; ATRIMER complex 4G8
B11: 101-80-5H3 ATRIMER (designed binder)
chain: EPPTQKPKKIVNAKKDVVNTKMFEELKSRLDTLAQEVALLKEQQALQTVCLKGTKVHMKCFLAFTQTKTFHEASEDCISRGGTLSTPQTGSENDALYEYLRQSVGNEAEIWLGLNGSALTNTWVDMTGARIAYKNWEPPAPYHPMAAGVFGENCAVLSGAANGKWFDKRCRDQLPYICQFGIV
modifications: ATRIMER is a homotrimer; one protomer is given.
notes: one residue deleted from Loop 4 (-GVFG); the GlyGly to AlaAla change; not shown: C-terminal purification tag: Myc/His6 (pANA4) or HA-StrepII (pANA10)
B12: 105-20-2A3 ATRIMER (designed binder)
chain: B1 chain with A118P, L119I, P138T, P139E, P140I, P141T, H142A, H143Q, M145D, V150Y
notes: not shown: C-terminal tag: Myc/His6 (pANA4) or HA-StrepII (pANA10); A Ser left at the ompA junction may also sit at the N-terminus
B13: 105-20-2F12 ATRIMER (designed binder)
chain: B1 chain with A118K, N121D, P138T, P139E, P140I, P141T, H142A, H143Q, M145D, V150Y
notes: not shown: C-terminal tag: His/Myc (pANA4) or HA-StrepII (pANA10)

These binders were tested against T3, recombinant human IL-12Rβ1/Fc fusion protein (R&D Systems) (human, UniProt P42701 24-540, limits assumed) (assay: Biacore, IL-12Rβ1/Fc captured).
T3 construct: bought; also called Il12Rb1
Method: (§1) A Biacore 3000 biosensor (GE Healthcare) was used to evaluate the interaction of human IL-12Rβ1/Fc or IL-12Rβ2/Fc with IL-23R binding ATRIMER™ complexes. Immobilization of an anti-human IgG Fc antibody (GE Healthcare) to the CM5 chip (GE Healthcare) was performed using standard amine coupling chemistry, and this modified surface was used to capture recombinant human IL-12Rβ1/Fc or IL-12Rβ2/Fc fusion protein (R&D Systems). A low-density receptor surface, less than 200 RU, was used for all of the analyses. ATRIMER™ complex dilutions (100 nM) were injected over the IL-12R surface at 30 μl/min. Data collection was 3 minutes for the association and 5 minutes for dissociation. The anti-human IgG surface was regenerated with a 30 s pulse of 3M magnesium chloride. All sensorgrams were double-referenced against an anti-human IgG Fc antibody surface as well as buffer injections.

| Binder | binding result |
| --- | --- |
| B1 | no binding (tested: 100 nM) |
| B2 | no binding (tested: 100 nM) |
| B3 | no binding (tested: 100 nM) |

What follows are binders tested against T1, recombinant human IL-12Rβ2/Fc fusion … (assay: Biacore, IL-12Rβ2/Fc captured).
Method: as §1

| Binder | binding result |
| --- | --- |
| B1 | no binding (tested: 100 nM) |
| B2 | no binding (tested: 100 nM) |
| B3 | no binding (tested: 100 nM) |

What follows are binders tested against recombinant human DR 4 receptor Fc fusion protein (R&D Systems) (human) (assay: SPR (Biacore), captured DR4/Fc).
recombinant human DR 4 receptor Fc fusion protein (R&D Systems) (human), sequence (chain, as listed by the source): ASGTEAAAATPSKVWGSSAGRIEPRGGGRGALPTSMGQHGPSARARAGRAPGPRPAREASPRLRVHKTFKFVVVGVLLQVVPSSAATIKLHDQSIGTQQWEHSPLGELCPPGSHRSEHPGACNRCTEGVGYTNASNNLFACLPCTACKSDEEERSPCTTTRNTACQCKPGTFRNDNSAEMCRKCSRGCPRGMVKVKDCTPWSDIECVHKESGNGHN

| Binder | Ka [M⁻¹] | Kd [nM] | koff [s⁻¹] | kon [M⁻¹ s⁻¹] |
| --- | --- | --- | --- | --- |
| B4 | 2.53e+07 | 39.5 | 0.000526 | 13300 |

The binders below were run against recombinant human DR 5 receptor Fc fusion protein (R&D Systems) (human) (assay: SPR (Biacore), captured DR5/Fc).
recombinant human DR 5 receptor Fc fusion protein (R&D Systems) (human), sequence (chain, as listed by the source): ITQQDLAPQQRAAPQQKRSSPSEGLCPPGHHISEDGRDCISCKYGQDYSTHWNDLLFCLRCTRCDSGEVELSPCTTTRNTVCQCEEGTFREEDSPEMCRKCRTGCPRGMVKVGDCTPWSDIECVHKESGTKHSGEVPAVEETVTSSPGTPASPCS

| Binder | Ka [M⁻¹] | Kd [nM] | koff [s⁻¹] | kon [M⁻¹ s⁻¹] |
| --- | --- | --- | --- | --- |
| B5 | 2.56e+07 | 39.1 | 0.000506 | 12900 |
| B6 | 1.11e+06 | 899 | 0.000104 | 116 |
| B7 | 2.38e+07 | 42.8 | 0.00184 | 43800 |
| B8 | 6.43e+07 | 15.6 | 0.000629 | 40500 |

Each binder was assayed against T2, recombinant human IL-23R/Fc chimera … (assay: competition ELISA against IL-23).
Method: (§2) Assays were performed generally as follows. Individual wells in Immulon HB2 plates were incubated overnight at 4° C. with 100 μL PBS containing 100 ng of an anti-human IgG Fc (R&D MAB 110 clone 97924). Plates were washed five times with PBS/0.05% Tween 20, and wells were incubated for 1.5 h at RT with 100 μL each of PBS containing 50 ng of recombinant human IL-23R/Fc. […] Competitor was included at a final concentration of 1 μg/mL. After incubation, plates were washed as described and wells were incubated for 40 min at RT with 100 μL each of PBS containing a 1:5000 dilution of streptavidin-HRP conjugate (Pierce catalog no. 21130). After washing, wells were incubated with 100 μL each of TMB (BioFX Lab catalog no. TMBH-1000-0) for up to 30 min at RT. Reactions were stopped with an equal volume of 0.2 M sulfuric acid.
A number of ATRIMER™ polypeptide complexes were tested in competition ELISA more extensively to determine IC50 values.

| Binder | IC50 [nM] |
| --- | --- |
| B9 | 2.6 |
| B10 | 1.4 |

Biological target: T2, recombinant human IL-23R/Fc chimera …
Assay: competition ELISA against IL-23
Remark: another data set of the same source
Method: as §2

| Binder | Ratio IC50 to 056-53.H4E IC50 [ratio] |
| --- | --- |
| B11 | 11.3 |
| B1 | 0.9 |
| B2 | 1 |
| B3 | 1 |
| B12 | 1.2 |
| B13 | 2.8 |

Each binder was assayed against T2, recombinant human IL-23R/Fc chimera … (assay: SPR (Biacore), captured IL-23R/Fc, ATRIMER).
Method: A Biacore 3000 biosensor (GE Healthcare) was used to evaluate the interaction of human IL-23R and receptor binders. Immobilization of an anti-human IgG Fc antibody (GE Heathcare) to the CM5 chip (Biacore) was performed using standard amine coupling chemistry, and this modified surface was used to capture a recombinant human IL-23R/Fc fusion protein (R&D Systems). A low-density receptor surface, less than 200 RU, was used for all of the analyses. ATRIMER™ polypeptide complex dilutions (1-500 nM) were injected over the IL-23R surface at 30 μl/min and kinetic constants were derived from the sensorgram data using the Biaevaluation software (version 3.1, GE Healthcare). Data collection was 3 minutes for the association and 5 minutes for dissociation. The anti-human IgG surface was regenerated with a 30 s pulse of 3M magnesium chloride. All sensorgrams were double-referenced against an activated and blocked flow-cell as well as buffer injections.

| Binder | Ka [M⁻¹] | Kd [nM] | koff [s⁻¹] | kon [M⁻¹ s⁻¹] |
| --- | --- | --- | --- | --- |
| B11 | 1.55e+08 | 6.46 | 0.000327 | 50500 |
| B9 | 5.21e+08 | 1.92 | 0.00033 | 172000 |
| B1 | 1.63e+09 | 0.613 | 0.000382 | 623000 |
| B2 | 2.58e+09 | 0.388 | 0.000395 | 1.02e+06 |
| B3 | 2.24e+09 | 0.447 | 0.000187 | 419000 |
| B12 | 1.32e+09 | 0.759 | 0.000312 | 412000 |
| B13 | 5.41e+08 | 1.85 | 0.000471 | 254000 |
| B10 | 1.35e+08 | 7.42 | 0.000805 | 109000 |

— patent US20110086770A1 (ANAPHORE, published 2011)
